Experimental findings from patent publication US20130011427A1 (priority 2009, published 2013) are described below.

Common to all, as to experiment: cell-based or functional assay
Test [1] concerns the target HLA-DR4 (HLA-DRA*0101 / HLA-DRB1*0401) (human).
Test [2] concerns the target HLA-DR3 (HLA-DRA*0101 / HLA-DRB1*0301) (human).
For test [3], the target named is HLA-DR2 (chimeric HLA-DRA1*0101/DRB1*1501 with I-E domains) (human; murine) (UniProt Q8BHN5).
The target in test [4] is HLA-B7 (chimeric HLA-B*0702 / H-2K^d heavy chain) (human; murine) (UniProt P01902).
Chain of UniProt P01902 (P01902 whole entry, change not shown): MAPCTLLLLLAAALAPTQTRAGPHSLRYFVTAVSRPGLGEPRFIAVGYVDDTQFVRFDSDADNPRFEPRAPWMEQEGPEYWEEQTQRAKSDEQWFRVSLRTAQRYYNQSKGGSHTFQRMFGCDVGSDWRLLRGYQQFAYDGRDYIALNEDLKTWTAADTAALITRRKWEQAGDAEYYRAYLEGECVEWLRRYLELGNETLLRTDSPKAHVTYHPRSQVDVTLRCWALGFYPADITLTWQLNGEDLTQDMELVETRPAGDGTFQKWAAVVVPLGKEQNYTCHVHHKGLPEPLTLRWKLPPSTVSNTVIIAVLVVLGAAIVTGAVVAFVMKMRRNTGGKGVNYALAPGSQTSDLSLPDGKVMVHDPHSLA
Test [5] deals with HLA-A2.1 (HHD monochain) (human; murine).

Chain of UniProt Q8BHN5 (Q8BHN5 whole entry, stated change not applied): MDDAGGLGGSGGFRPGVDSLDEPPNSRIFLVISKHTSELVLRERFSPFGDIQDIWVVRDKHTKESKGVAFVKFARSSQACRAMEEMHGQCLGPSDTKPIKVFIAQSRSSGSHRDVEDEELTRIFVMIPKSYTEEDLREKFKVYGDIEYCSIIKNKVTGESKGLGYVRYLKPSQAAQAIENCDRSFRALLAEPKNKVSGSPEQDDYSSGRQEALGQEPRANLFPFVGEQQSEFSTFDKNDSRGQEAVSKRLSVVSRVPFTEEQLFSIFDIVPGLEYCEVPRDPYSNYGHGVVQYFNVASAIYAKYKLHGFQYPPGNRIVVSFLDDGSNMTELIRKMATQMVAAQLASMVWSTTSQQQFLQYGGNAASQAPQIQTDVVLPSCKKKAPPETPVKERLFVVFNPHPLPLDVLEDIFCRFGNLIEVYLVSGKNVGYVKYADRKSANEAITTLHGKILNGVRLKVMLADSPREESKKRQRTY

For WNV NS1 205-221 peptide, in test [1], the IFN-γ ELISpot (SFC/10^6) stood at 61 SFC/10^6.

For WNV NS1 270-287 peptide, the IFN-γ ELISpot (SFC/10^6) in test [1] amounted to 54 SFC/10^6.

Turning to WNV NS1 305-322 peptide, the IFN-γ ELISpot (SFC/10^6) in test [2] was determined as 557 SFC/10^6; in test [1] it was 109 SFC/10^6.

In test [1], WNV NS1 327-343 peptide returned an IFN-γ ELISpot (SFC/10^6) of 78 SFC/10^6.

In test [1], WNV NS2a 65-81 peptide came in with an IFN-γ ELISpot (SFC/10^6) of 60 SFC/10^6.

Consider WNV NS2a 168-183 peptide, for which the results for the IFN-γ ELISpot (SFC/10^6) in test [3] and in test [2] were 556 SFC/10^6 and 231 SFC/10^6, respectively.

Turning to WNV NS2b 1-18 peptide, in test [1], the IFN-γ ELISpot (SFC/10^6) was 104 SFC/10^6.

WNV NS3 1-15 peptide had an IFN-γ ELISpot (SFC/10^6) in test [4] of 45 SFC/10^6.

WNV NS3 6-23 peptide had an IFN-γ ELISpot (SFC/10^6) in test [1] of 43 SFC/10^6.

Regarding WNV NS3 37-54 peptide, the IFN-γ ELISpot (SFC/10^6) in test [3] stood at 149 SFC/10^6; in test [2], 368 SFC/10^6.

WNV NS3 45-59 peptide: the IFN-γ ELISpot (SFC/10^6) in test [2] was 63 SFC/10^6.

For WNV NS3 228-243 peptide, the IFN-γ ELISpot (SFC/10^6) in test [1] stood at 46 SFC/10^6.

For the substance WNV NS3 474-489 peptide, the IFN-γ ELISpot (SFC/10^6) in test [5] came to 92 SFC/10^6; in test [2], 83 SFC/10^6.

Regarding WNV NS3 480-496 peptide, the IFN-γ ELISpot (SFC/10^6) in test [2] is 121 SFC/10^6.

Take WNV NS3 487-501 peptide: the IFN-γ ELISpot (SFC/10^6) is 308 SFC/10^6 in test [5] and 431 SFC/10^6 in test [2].

Take WNV NS3 492-509 peptide: the IFN-γ ELISpot (SFC/10^6) in test [2] stood at 216 SFC/10^6.

WNV NS3 500-517 peptide: the IFN-γ ELISpot (SFC/10^6) in test [3] came out at 51 SFC/10^6; in test [2] it was 145 SFC/10^6.

In test [2], WNV NS3 560-574 peptide showed an IFN-γ ELISpot (SFC/10^6) of 225 SFC/10^6.

The substance WNV NS3 581-597 peptide gave an IFN-γ ELISpot (SFC/10^6) in test [1] of 52 SFC/10^6.

In test [2], WNV NS4a 1-17 peptide yielded an IFN-γ ELISpot (SFC/10^6) of 132 SFC/10^6.

Turning to WNV NS4a 15-31 peptide, the IFN-γ ELISpot (SFC/10^6) was 278 SFC/10^6 in test [3] and 187 SFC/10^6 in test [1].

For the substance WNV NS4b 38-55 peptide, the IFN-γ ELISpot (SFC/10^6) in test [3] is 57 SFC/10^6; in test [2] it was 67 SFC/10^6.

Regarding WNV NS4b 63-80 peptide, the IFN-γ ELISpot (SFC/10^6) turned out to be 386 SFC/10^6 in test [2] and 92 SFC/10^6 in test [1].

Turning to WNV NS4b 101-118 peptide, the IFN-γ ELISpot (SFC/10^6) in test [1] is 134 SFC/10^6.

For WNV NS4b 187-204 peptide, the IFN-γ ELISpot (SFC/10^6) in test [1] was 83 SFC/10^6.

As to WNV NS4b 201-218 peptide, the IFN-γ ELISpot (SFC/10^6) is 99 SFC/10^6 in test [2] and 73 SFC/10^6 in test [1].

In test [2], WNV NS5 115-132 peptide had an IFN-γ ELISpot (SFC/10^6) of 79 SFC/10^6.

In test [4], WNV NS5 145-162 peptide came in with an IFN-γ ELISpot (SFC/10^6) of 50 SFC/10^6.

Turning to WNV NS5 153-168 peptide, the IFN-γ ELISpot (SFC/10^6) in test [5] is 332 SFC/10^6; in test [4], 112 SFC/10^6; in test [3] it was 250 SFC/10^6.

Turning to WNV NS5 605-622 peptide, the IFN-γ ELISpot (SFC/10^6) turned out to be 556 SFC/10^6 in test [3] and 240 SFC/10^6 in test [1].

Regarding WNV NS5 704-721 peptide, the IFN-γ ELISpot (SFC/10^6) in test [1] was found to be 65 SFC/10^6.

For WNV NS5 763-780 peptide, the IFN-γ ELISpot (SFC/10^6) in test [4] is 36 SFC/10^6; in test [1] it was 91 SFC/10^6.

For the substance WNV NS5 771-788 peptide, in test [1], the IFN-γ ELISpot (SFC/10^6) worked out at 135 SFC/10^6.

As to WNV NS5 791-808 peptide, in test [1], the IFN-γ ELISpot (SFC/10^6) worked out at 78 SFC/10^6.

In test [4], WNV NS5 828-843 peptide displayed an IFN-γ ELISpot (SFC/10^6) of 39 SFC/10^6.

In the case of WNV prM 121-138 peptide, the values for the IFN-γ ELISpot (SFC/10^6) in test [3] and in test [1] were 130 SFC/10^6 and 56 SFC/10^6, respectively.

Turning to WNV prM 136-153 peptide, the figures for the IFN-γ ELISpot (SFC/10^6) in test [3], in test [2] and in test [1] were 235 SFC/10^6, 78 SFC/10^6 and 327 SFC/10^6, respectively.

Consider WNV prM 152-167 peptide, for which the IFN-γ ELISpot (SFC/10^6) in test [5] was 318 SFC/10^6; in test [3], 269 SFC/10^6; in test [2] it was 90 SFC/10^6; in test [1], 117 SFC/10^6.
